Source: article PMC8092228 (mBio, 2021)

Molecular target: LOV-PAS-HK construct of Brucella abortus LOV-HK (residues 15 to 489), called the full-length protein (Brucella abortus)
Assay: SEC with static light scattering (SEC-SLS)

Chain of LOV-PAS-HK construct of Brucella abortus LOV-HK (residues 15 to 489), called the full-length protein (enzyme) (A9MBM8 15-489 limits assumed): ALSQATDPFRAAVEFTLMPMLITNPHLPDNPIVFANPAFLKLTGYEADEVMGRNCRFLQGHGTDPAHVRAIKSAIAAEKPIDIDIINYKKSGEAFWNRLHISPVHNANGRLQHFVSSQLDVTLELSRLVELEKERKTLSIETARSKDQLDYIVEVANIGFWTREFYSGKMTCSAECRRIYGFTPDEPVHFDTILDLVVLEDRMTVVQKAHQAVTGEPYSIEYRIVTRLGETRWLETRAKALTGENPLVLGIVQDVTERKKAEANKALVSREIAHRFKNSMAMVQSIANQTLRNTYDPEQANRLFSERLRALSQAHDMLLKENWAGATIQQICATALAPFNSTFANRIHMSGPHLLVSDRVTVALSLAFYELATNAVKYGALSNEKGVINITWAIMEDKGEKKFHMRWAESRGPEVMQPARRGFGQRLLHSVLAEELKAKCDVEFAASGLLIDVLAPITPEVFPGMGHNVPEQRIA

Substance: LOV-PAS-HK construct of Brucella abortus LOV-HK (residues 15 to 489), called the full-length protein (enzyme)
- stoichiometry N: 2
